Experimental data: article PMC3954793, “SHP-2 Binds to Caveolin-1 and Regulates Src Activity via Competitive Inhibition of CSK in Response to H2O2 in Astrocytes” (PLoS ONE, 2014)

Assays:
caveolin-1/SHP-2 complex = test: Co-immunoprecipitation of caveolin-1 and SHP-2; format: cell-based, human; conditions: HEK 293T cells transfected with WT or Y14A caveolin-1; 5 mM H2O2, 10 min
Protocol: (§1) cDNA encoding full-length human caveolin-1 was obtained from Thermo Scientific (Waltham, MA, USA). The Y14A caveolin-1 mutant was generated using a QuickChange site-directed mutagenesis kit (Stratagene, Santa Clara, CA, USA) using PCR. pCMV-SPORT6-caveolin-1 cDNA (25 ng) was used as a template and added to dNTP mix, Pfu buffer, Pfu turbo DNA polymerase and 125 ng of each of the mutagenic primers: sense, 5′-[…]-3′ and antisense, 5′-[…]-3′. Samples were then incubated at 95°C for 1 min, then for 20 cycles of 95°C for 1 min, 65°C for 4 min, and 68°C for 12 min. The methylated parental DNA template in the PCR product was digested using the DpnI (10 U) restriction enzyme for 3 h at 37°C. […] After mutagenesis, 1 µg of caveolin-1 wild-type (WT) or Y14A mutant DNA was transfected into HEK 293T cells using VIVAMAGIC transfection reagent (VIVAGEN, Seongnam, Korea) containing 10% FBS according to the manufacturer’s instructions for 24 h before treatment with 5 mM H2O2 for 10 min; the cells were then analyzed by immunoblotting.
(§2) Cells were plated and transfected with green fluorescence protein (GFP) siRNA (Samchully Pharm Co. Ltd., Seoul, Korea) as a control group and human CSK siRNA and human SHP-2 siRNA from Bioneer (Daejeon, Korea) using Lipofectamine RNAiMAX (Invitrogen, Carlsbad, CA, USA) according to the manufacturer’s instructions to achieve a final concentration of 300 nM. […]

caveolin-1/CSK complex = test: Co-immunoprecipitation of caveolin-1 and CSK; format: cell-based, human; conditions: HEK 293T cells transfected with WT or Y14A caveolin-1; 5 mM H2O2, 10 min
Protocol: as §1, §2

B1: WT caveolin-1: full-length human wild-type caveolin-1 expressed in transfected HEK 293T cells (protein)
chain: MSGGKYVDSEGHLYTVPIREQGNIYKPNNKAMADELSEKQVYDAHTKEIDLVNRDPKHLNDDVVKIDFEDVIAEPEGTHSFDGIWKASFTTFTVTKYWFYRLLSALFGIPMALIWGIYFAILSFLHIWAVVPCIKSFLIEIQCISRVYSIYVHTVCDPLFEAVGKIFSNVRINLQKEI
modifications: phosphotyrosine at 14 after H2O2 treatment
notes: full-length human wild-type caveolin-1 expressed in transfected HEK 293T cells
Question: What does the source list for B1?
Answer: interaction of SHP-2 with transfected caveolin-1 (caveolin-1/SHP-2 complex): SHP-2 interacted with WT caveolin-1, but not mutant caveolin-1, and only in the presence of H2O2; interaction between CSK and transfected caveolin-1 (caveolin-1/CSK complex): An interaction between CSK and WT caveolin-1, but not Y14A mutant caveolin-1, was observed in the presence of H2O2
